Measured values published in patent US20150231240A1, “ANTI-C16ORF54 ANTIBODIES AND METHODS OF USE THEREOF” (priority 2012, published 2015).

Assays:
human C16orf54 [1] = target: T1, human C16orf54 (Homo sapiens, UniProt Q6UWD8); assay: Flow cytometry reactivity with sarcoma cells expressing human C16orf54 (fold change over isotype); format: binding; details: for binding to human C16orf54 (flow cytometry): sarcoma cells expressing human C16orf54, 10 μg/ml antibody
T1 construct: expressed in transfected cells; host or cells: murine sarcoma cells (D42M1-huC16orf54)
T1 sequence (Q6UWD8 1-224): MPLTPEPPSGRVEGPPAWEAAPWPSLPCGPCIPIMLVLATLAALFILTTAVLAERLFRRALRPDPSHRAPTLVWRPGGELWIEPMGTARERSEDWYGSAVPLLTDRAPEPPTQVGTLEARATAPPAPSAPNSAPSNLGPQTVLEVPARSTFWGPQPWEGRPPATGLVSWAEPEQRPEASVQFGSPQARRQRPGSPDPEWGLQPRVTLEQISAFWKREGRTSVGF
Experimental: (§1) Anti-C16orf54 antibodies which bound to human C16orf54 were tested for their reactivity with human C16orf54 and their crossreactivity with C16orf54 from cynomolgous monkeys (cyno C16orf54) using flow cytometry. Sarcoma cells transfected with and expressing human C16orf54 or cyno C16orf54 were washed with PBS with 0.1% BSA, incubated with FcX receptor blocking solution (BioLegend) for 15 minutes, incubated with 10 μg/ml of anti-C16orf54 antibody for 1 hour at 4° C., washed twice with PBS with 0.1% BSA, incubated with 20 μg/ml of R-Phycoerythrin-AffiniPure F(ab′)2 Fragment Goat Anti-Mouse IgG, Fcγ Fragment Specific (Jackson ImmunoResearch) for 30 minutes at 4° C., washed twice with PBS with 0.1% BSA, incubated with the viability dye TO-PRO-3 iodide (Life Technologies), and immediately analyzed on a MACSQuant Analyzer instrument (Miltenyi). For each cell line and anti-C16orf54 antibody, a fold change was derived by dividing the median fluorescence intensity for Phycoerythrin in the live cell population for the anti-C16orf54 antibody by the median fluorescence intensity for Phycoerythrin in the live cell population for the IgG isotype control antibody.

[2] = system: human C16orf54 extracellular domain peptides; assay: C16orf54 peptide ELISA, human extracellular domain peptides; format: binding; details: human, cyno, or mouse extracellular domain peptides, not told apart; 10 μg/ml antibody
Experimental: (§2) Anti-C16orf54 antibodies which bind to human C16orf54, including antibodies that are crossreactive with cyno C16orf54, were tested for their binding to various peptides derived from C16orf54 in a peptide ELISA. A 384-well high binding black microplate (Greiner) was incubated with 2 μg/ml of protein (human, cyno, or mouse extracellular domain peptides) for 16 hours, incubated for 1 hr with a blocking buffer (PBS with 5% Fetal Bovine Serum), washed four times with TBS with Tween, incubated for 1 hour with 10 μg/ml of anti-C16orf54 antibody, washed four times with TBS with Tween, incubated for 1 hour with 10 μg/ml of Peroxidase-AffiniPure Goat Anti-Mouse IgG, Fcγ Fragment Specific (Jackson ImmunoResearch), washed four times with TBS with Tween, and peroxidase was detected with a luminometer (Molecular Devices) upon addition of SuperSignal® ELISA Pico Chemiluminescent Substrate (Thermo Scientific). The luminescence signal was determined.

[3] = target: T2, extracellular domain of c16orf54 (amino acids 1-31) fused to human IgG1 Fc (Homo sapiens, UniProt Q6UWD8); assay: C16orf54 peptide-Fc fusion protein ELISA; format: binding; details: serial dilution of antibody; HRP-conjugated anti mouse secondary
T2 construct: the extracellular domain of c16orf54 (amino acids 1-31) either N terminal or C-terminal to a human IgG1 Fc domain; made in house; host or cells: 293 T cells, transient; Protein A purification
T2 sequence (Q6UWD8 1-31 limits assumed): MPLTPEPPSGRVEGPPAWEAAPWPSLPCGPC
Experimental: Anti-C16orf54 antibodies which bind to human C16orf54, including antibodies that are crossreactive with cyno C16orf54, were tested for their binding to various peptides derived from C16orf54 that were fused to human IgG (e.g., IgG1) constant regions to generate various peptide-Fc fusion proteins in an Fc-based ELISA. An exemplary Fc sequence comprises an IgG1 Hinge region sequence and IgG1 CH3 and […] domain sequences.
The fusion proteins were transiently expressed in 293 T cells. Protein was purified from the 293 expression supernatants by Protein A-based affinity purification. Exemplary C16 peptide-Fc fusion constructs that were made and purified are shown with their protein yield in Table 38. ELISA assays were performed by coating 384 well plates with the fusion proteins overnight at 4C. Antibodies were analyzed by serial dilution with concentrations ranging from 40 ug/mL to […]. Binding was detected with an HRP-conjugated anti mouse secondary antibody.

C16orf54 ECD peptides = assay: Peptide crossblocking (Table 36); format: binding
[4] = target: T3, cynomolgus monkey C16orf54 (cynomolgus monkey (Macaca fascicularis), UniProt Q6UWD8 1-224 (human entry)); assay: flow cytometry titration, F279-cyno-C16orf54 cells
T3 construct: also called cyno C16orf54; cyno-C16orf54
T3 chain: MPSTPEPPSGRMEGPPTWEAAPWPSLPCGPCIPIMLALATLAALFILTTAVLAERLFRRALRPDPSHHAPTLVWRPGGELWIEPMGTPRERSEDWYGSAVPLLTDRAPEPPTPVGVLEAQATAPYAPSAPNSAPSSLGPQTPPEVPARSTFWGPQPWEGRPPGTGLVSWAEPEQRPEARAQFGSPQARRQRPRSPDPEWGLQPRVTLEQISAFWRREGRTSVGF
Experimental: Anti-C16orf54 antibodies which bound to human C16orf54 were tested for their binding to cells expressing human C16orf54 and cells expressing cyno C16orf54. […] Median fluorescence intensities for each primary antibody concentration were used to derive a flow EC50/Kd using the one site-specific binding with Hill slope model in Prism (GraphPad Prism® Software). Results are shown as flow EC50 in Table 35.

[5] = target: T4, human C16orf54 ECD fragment aa1-15 (human); assay: peptide ELISA, 2 ug/ml peptide coated, 10 ug/ml antibody
T4 peptide: MPLTPEPPSGRVEGP
Experimental: as §2

[6] = target: T5, human C16orf54 ECD fragment aa9-24 (human); assay: as above
T5 peptide: SGRVEGPPAWEAAPWP
Experimental: as §2

human C16orf54 [7] = target: T6, human C16orf54 (human, UniProt Q6UWD8 1-224); assay: flow cytometry, 10 ug/ml antibody, D42M1-huC16orf54 cells
T6 construct: also called huC16orf54; hC16orf54
T6 sequence: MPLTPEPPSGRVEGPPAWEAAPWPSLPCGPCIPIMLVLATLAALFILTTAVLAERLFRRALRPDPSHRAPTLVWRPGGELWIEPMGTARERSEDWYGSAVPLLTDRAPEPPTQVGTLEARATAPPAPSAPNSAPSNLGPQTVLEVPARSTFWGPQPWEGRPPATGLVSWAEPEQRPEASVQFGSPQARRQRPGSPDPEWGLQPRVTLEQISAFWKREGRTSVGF
Experimental: as §1, with “antibody. A number of anti-C16orf54 antibodies (see, e.g., R29-8-57B, R29-8-136C, R29-7-1C, R29-67-7A, R29-67-4A, and R29-7-2A) bind human C16orf54 and also bind (e.g., are crossreactive with) cyno C16orf54.” for “antibody.”

[8] = target: T3, cynomolgus monkey C16orf54; assay: flow cytometry, 10 ug/ml antibody, F279-cyno-C16orf54 cells
Experimental: as §1, with “antibody. A number of anti-C16orf54 antibodies (see, e.g., R29-8-57B, R29-8-136C, R29-7-1C, R29-67-7A, R29-67-4A, and R29-7-2A) bind human C16orf54 and also bind (e.g., are crossreactive with) cyno C16orf54.” for “antibody.”

human C16orf54 [9] = target: T6, human C16orf54; assay: flow cytometry titration, KG1 cells (endogenous human C16orf54)
[10] = target: T7, Human C16-ECD peptide (aa1-31) (human); assay: column head 'Full kinetics (nM)' in the table of the C16orf54 peptide binding assays; method and antigen not described; 3 runs
T7 construct: Coated on plates in the peptide ELISA; also called human extracellular domain peptide
T7 peptide: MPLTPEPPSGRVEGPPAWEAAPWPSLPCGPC

B1: R29-8-57B: murine anti-C16orf54 monoclonal antibody; VH SEQ ID NO: 20, VL SEQ ID NO: 22 (antibody, V domains shown)
VH: MRVLILLWLFTAFPGILSDVQLQESGPGLVKPSQSLSLTCTVTGYSITSDYAWNWIRQFPGNKLEWMGYINYSGSTRYNPSLKSRISITRDTSKNHFFLQLNSVTPEDTATYHCARERYDGVYYGMDYWGQGTSVTVSS
VL: MDSQAQVLMSLLLWVSGTCGDIVMSQSPSSLAVSVGEKVTMSCKSSQSLLYSSNQKNYLAWYQQKPGQSPKLLIYWASTRESGVPDRFTGSGSGTDFTLTISSVKTEDLAVYYCQQYYSYRTFGGGTKLEIK
modifications: R29-8-57B heavy chain variable region; R29-8-57B light chain variable region
binding to C16orf54-expressing cells (dual binders) (human C16orf54 [1]): bind to C16orf54-expressing cells | binding to human C16orf54 (flow cytometry) (human C16orf54 [1]): bind human C16orf54 | binding to peptides derived from the extracellular domain of C16orf54 (peptide ELISA) [2]: bind to the various peptides derived from the extracellular domain (ECD) of C16orf54 | binding to peptide-Fc fusion proteins (Fc-based ELISA) [3]: able to bind to the peptide-Fc fusion proteins | Peptide crossblocking (C16orf54 ECD peptides): aa1-31, aa1-15

B2: R29-8-136C: murine anti-C16orf54 monoclonal antibody; VH SEQ ID NO: 16, VL SEQ ID NO: 18 (antibody, V domains shown)
VH: MRVLILLWLFTAFPGILSDVQLQESGPGLVKPSQSLSLTCTVTGYSITSDYAWNWIRQFPGNKLEWMGYINYSGSSRYNPSLKSRISITRDTSKNHFFLQLNSVTPEDTATYHCARERYDGVYYGMDYWGQGTSVTVSS
VL: MDSQAQVLMSLLLWVSGTCGDIVMSQSPSSLAVSVGEKVTMSCKSSQSLLYSSNQKNYLAWYQQKPGQSPKLLIYWASTRESGVPDRFTGSGSGTDFTLTISSVKTEDLAVYYCQQYYSYRTFGGGTKLEIK
modifications: R29-8-136C heavy chain variable region; R29-8-136C light chain variable region
binding to C16orf54-expressing cells (dual binders) (human C16orf54 [1]): bind to C16orf54-expressing cells | binding to human C16orf54 (flow cytometry) (human C16orf54 [1]): bind human C16orf54 | binding to peptides derived from the extracellular domain of C16orf54 (peptide ELISA) [2]: bind to the various peptides derived from the extracellular domain (ECD) of C16orf54 | Peptide crossblocking (C16orf54 ECD peptides): aa1-31, aa1-15

B3: R29-8-57B (antibody, V domains shown)
VH: DVQLQESGPGLVKPSQSLSLTCTVTGYSITSDYAWNWIRQFPGNKLEWMGYINYSGSTRYNPSLKSRISITRDTSKNHFFLQLNSVTPEDTATYHCARERYDGVYYGMDYWGQGTSVTVSS
VL: DIVMSQSPSSLAVSVGEKVTMSCKSSQSLLYSSNQKNYLAWYQQKPGQSPKLLIYWASTRESGVPDRFTGSGSGTDFTLTISSVKTEDLAVYYCQQYYSYRTFGGGTKLEIK
notes: Murine monoclonal antibody from a hybridoma
EC50 [4]: 2.5 nM | binding result [5]: binds | binding result [6]: binds | Median fold change relative to IgG control (human C16orf54 [7]): 204 fold | Median fold change relative to IgG control [8]: 62 fold | EC50 (human C16orf54 [9]): 0.1 nM | Kd [10]: 0.6 nM

B4: R29-8-136C (antibody, V domains shown)
VH: DVQLQESGPGLVKPSQSLSLTCTVTGYSITSDYAWNWIRQFPGNKLEWMGYINYSGSSRYNPSLKSRISITRDTSKNHFFLQLNSVTPEDTATYHCARERYDGVYYGMDYWGQGTSVTVSS
VL: DIVMSQSPSSLAVSVGEKVTMSCKSSQSLLYSSNQKNYLAWYQQKPGQSPKLLIYWASTRESGVPDRFTGSGSGTDFTLTISSVKTEDLAVYYCQQYYSYRTFGGGTKLEIK
notes: as for B3
EC50 [4]: 2.5 nM | binding result [5]: binds | binding result [6]: binds | Median fold change relative to IgG control (human C16orf54 [7]): 202 fold | Median fold change relative to IgG control [8]: 61.6 fold | EC50 (human C16orf54 [9]): 0.2 nM | Kd [10]: 0.64 nM
